In patent US20240034779A1 (Takeda / Millennium, published 2024):

Assays:
[1] = target: T1, cynomolgus complement factor D (CFD) (cynomolgus monkey); test: SPR (Biacore), pH 5.5
T1 construct: also called cyno CFD; cynomolgus CFD

[2] = target: T2, human complement factor D (CFD) (human, UniProt P00746 26-253, limits assumed); test: SPR (Biacore), pH 5.5
T2 construct: also called human CFD; adipsin

[3] = target: T2, human complement factor D (CFD); test: SPR (Biacore), pH 7.4; pH 7.4
[4] = target: T1, cynomolgus complement factor D (CFD); test: SPR (Biacore), pH 7.4

T2 sequence (P00746 26-253 limits assumed): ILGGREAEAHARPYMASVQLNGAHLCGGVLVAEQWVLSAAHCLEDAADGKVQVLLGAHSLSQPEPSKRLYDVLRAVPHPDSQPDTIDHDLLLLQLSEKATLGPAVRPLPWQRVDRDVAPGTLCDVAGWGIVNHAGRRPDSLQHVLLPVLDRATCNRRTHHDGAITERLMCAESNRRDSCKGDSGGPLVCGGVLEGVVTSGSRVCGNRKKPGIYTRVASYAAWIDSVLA

Kd [1]: 4.59 nM
Kd [2]: 805 nM
Kd [3]: 2 pM
Kd [4]: 0.037 nM
B1: anti-CFD antibody 2 (clone 169C8) (antibody, human IgG1, lambda, L234A L235A, V domains shown)
VH: EVQVQESGPGLVKPSQTLSLTCTVSGGSITTSYYAWSWIRQPPGKGLEWMGDIANDGSTYYSPSLESRTSISRDTSKNQFSLQLSSVTPEDTAVYYCARLRSLYTDYDPHYYDYWGQGTQVTVSS
VL: SSALTQPSALSVTKGQTAKITCQGDLLPRHYAHWYQQKTGQAPKLIVYDDDIRPSGIPERFSGSNSGGVATLTIAGAQAEDEADYHCQSADSNDDAVFGGGTHLTVLS
notes: also called anti-CFD mAb 2; ASHE mAb
